Molecular target: the molecule itself
Assay: cryo-EM structure; cardiolipin-loaded MlaD^32-183 with MlaC-apo, cross-linked with 0.1% glutaraldehyde, 0.8 mg/mL in 20 mM Tris pH 8.0, 150 mM NaCl; 1:6 map at 4.35 Å, 2:6 map at 4.38 Å

B1: periplasmic domain of E. coli MlaD (residues 32-183), MlaD^32-183 (domain or fragment, UniProt P64604 32-183, looked up)
chain: TSIRTEPTYTLYATFDNIGGLKARSPVSIGGVVVGRVADITLDPKTYLPRVTLEIEQRYNHIPDTSSLSIRTSGLLGEQYLALNVGFEDPELGTAILKDGDTIQDTKSAMVLEDLIGQFLYGSKGDDNKNSGDAPAAAPGNNETTEPVGTTK
notes: synthesised (Genscript), cloned in pET26b; No cleavage of the His tag is described; In the functional rows of the MlaC mutants the wild-type MlaD stood as part of MlaFEDB in acceptor proteoliposomes, not as this fragment; source: E. coli BL21(DE3), purified (Ni-NTA, Superdex 200); lipid removed with β-OG and loaded with cardiolipin where stated
stoichiometry N: 6

— publication PMC11289387, “Structure of the MlaC-MlaD complex reveals molecular basis of periplasmic phospholipid transport” (Nature Communications, 2024)
